Results: patent CN117088968A

Biological target: 2019-nCoV N蛋白抗原 (2019-nCoV (新型冠状病毒)) (UniProt P0DTC9)
Assay: AMC sensor, antibody captured at 10 μg/mL, N protein antigen in serial dilution in PBST

## 对照 (antibody)
  Kd: 24.3 nM
  koff: 0.00011 s⁻¹
  kon: 4520 M⁻¹ s⁻¹
